For five substances, Kd results are on record in patent publication EP0957164B1.

For this assay, the target named is insulin (UniProt P01308). The assay can be described thus: PEG precipitation assay, A14-125I-insulin tracer displaced by unlabeled insulin, BHK medium.
Chain of UniProt P01308 (P01308 90-110 limits assumed, chain 1 of 2): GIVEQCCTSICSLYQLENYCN
Chain of UniProt P01308 (P01308 25-54 limits assumed, chain 2 of 2): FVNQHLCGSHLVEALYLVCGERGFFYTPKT
Regarding “IGFIR(Δ459-672).1-68, 704-729.IR (receptor)”, the Kd was 4.4 nM. As for IGFIR(Δ459-672).1-68IR (receptor), the figure is 2.1 nM; as for IRΔ673 (receptor), 1.1 nM; as for IRΔ685 (receptor), 6.4 nM. As for IRΔ703 (receptor), the figure is 4.4 nM.
